# Results as given in patent publication US20250115681A1 (WESTLAKE UNIVERSITY, published 2025).
# Where no end group is shown, it is not given here. [ ]: non-standard residue; d: D form. The star is where a group is joined. Biotin = O=C1N[C@H]2[C@H](CS[C@H]2CCCCC(=O)*)N1
# T1: AALPET*G peptide with N-terminal biotinylation
# T1 construct: Synthetic sortase substrate peptide
# T1 peptide: Biotin-AALPET[2‑hydroxyacetic acid]G
# Target: T1, AALPET*G peptide with N-terminal …
# Experiment: western blot of in vitro reaction product bands
binder,measurement,value
"mgSrtA (Ca2+-dependent) (enzyme, Engineered variant of wild-type sortase A, expressed in E. coli BL21 (DE3) with an N-terminal 6xHis tag; also called Ca^2+-dependent mgSrtA; not shown: N-terminal 6xHis tag from the pET-28a backbone) KPHIDNYLHDKDKDEKIEQYDKNVKEQASKDKKQQAKPQIPKDKSKVAGYIEIPDADIKEPVYPGPATREQLNRGVSFAEENESLDDQNISIAGHTFIGRPNYQFTNLKAAKKGSMVYFKVGNETRKYKMTSIRNVKPTAVGVLDEQKGKDKQLTLITCDDLNRETGVWETRKILVATEVK",binding result,binds
